In US20090246189A1 (Biogen, published 2009):

Target: T1, endogenous EGFR in mouse ventral midbrain (VM) tissue (mouse, UniProt Q01279 25-1210)
T1 construct: Native protein in a tissue extract
Assay: co-immunoprecipitation from mouse ventral midbrain extracts, Western blot
Procedure: COS-7 or HEK 293 cells (100 mm dishes) were transfected with Sp35, EGFR and Sp35/EGFR. The cells were harvested after 48 hours and lysed in 1 ml lysis buffer (50 mM HEPES, pH 7.5, 150 mM NaCl, 1.5 mM MgCl₂, 1 mM EDTA, 1% Triton x-100, 10% glycerol) or RIPA buffer (50 mM TRIS, pH 7.2, 1% Triton X-100, 0.5% sodium deoxycholate, 0.1% SDS, 150 mM NaCl, 10 mM MgCl₂, 5% glycerol) for 30 minutes at 4° C. After centrifugation at 14,000×g for 15 minutes, the supernatants were incubated with Protein A/G-Sepharose beads (Santa Cruz Biotechnology) at 4° C. for 1 hour, and then 200 μl of the precleared lystates were incubated with either anti-EGFR (Santa Cruz Biotechnology) at 4° C. for 1 hour, anti-Sp35 antibody (Biogen Idec, described in U.S. Provisional Patent Application No. 60/697,336, which is incorporated by reference herein in its entirety) followed by treatment with Protein A/G-Sepharose beads. The beads were washed 3 times with lysis buffer, boiled in Laemmeli sample buffer, subjected to 4-20% SDS-PAGE, and analyzed by Western blotting with anti-EGFR antibody or anti-Sp35 antibody. The EGFR and Sp35 antibodies were visualized using anti-rabbit IgG-HRP.
Sp35 KO or WT VMs were lysed in RIPA buffer and pre-cleared by Protein A/G plus-Sepharose beads as described above. […]

B1: endogenous Sp35 (LINGO-1) in mouse ventral midbrain (VM) tissue (receptor, UniProt Q9D1T0 36-614, looked up)
chain: CPPRCECSAQDRAVLCHRKRFVAVPEGIPTETRLLDLGKNRIKTLNQDEFASFPHLEELELNENIVSAVEPGAFNNLFNLRTLGLRSNRLKLIPLGVFTGLSNLTKLDISENKIVILLDYMFQDLYNLKSLEVGDNDLVYISHRAFSGLNSLEQLTLEKCNLTSIPTEALSHLHGLIVLRLRHLNINAIRDYSFKRLYRLKVLEISHWPYLDTMTPNCLYGLNLTSLSITHCNLTAVPYLAVRHLVYLRFLNLSYNPIGTIEGSMLHELLRLQEIQLVGGQLAVVEPYAFRGLNYLRVLNVSGNQLTTLEESAFHSVGNLETLILDSNPLACDCRLLWVFRRRWRLNFNRQQPTCATPEFVQGKEFKDFPDVLLPNYFTCRRAHIRDRKAQQVFVDEGHTVQFVCRADGDPPPAILWLSPRKHLVSAKSNGRLTVFPDGTLEVRYAQVQDNGTYLCIAANAGGNDSMPAHLHVRSYSPDWPHQPNKTFAFISNQPGEGEANSTRATVPFPFDIKTLIIATTMGFISFLGVVLFCLVLLFLWSRGKGNTKHNIEIEYVPRKSDAGISSADAPRKFNMKMI
notes: Native protein in a tissue extract; Sp35 knock-out VM served as the control
- binding result: binds
